Target: AR co-purified in the TAP-LSD1/AR complex (UniProt P10275)
Sequence (P10275 whole entry, one chain of several): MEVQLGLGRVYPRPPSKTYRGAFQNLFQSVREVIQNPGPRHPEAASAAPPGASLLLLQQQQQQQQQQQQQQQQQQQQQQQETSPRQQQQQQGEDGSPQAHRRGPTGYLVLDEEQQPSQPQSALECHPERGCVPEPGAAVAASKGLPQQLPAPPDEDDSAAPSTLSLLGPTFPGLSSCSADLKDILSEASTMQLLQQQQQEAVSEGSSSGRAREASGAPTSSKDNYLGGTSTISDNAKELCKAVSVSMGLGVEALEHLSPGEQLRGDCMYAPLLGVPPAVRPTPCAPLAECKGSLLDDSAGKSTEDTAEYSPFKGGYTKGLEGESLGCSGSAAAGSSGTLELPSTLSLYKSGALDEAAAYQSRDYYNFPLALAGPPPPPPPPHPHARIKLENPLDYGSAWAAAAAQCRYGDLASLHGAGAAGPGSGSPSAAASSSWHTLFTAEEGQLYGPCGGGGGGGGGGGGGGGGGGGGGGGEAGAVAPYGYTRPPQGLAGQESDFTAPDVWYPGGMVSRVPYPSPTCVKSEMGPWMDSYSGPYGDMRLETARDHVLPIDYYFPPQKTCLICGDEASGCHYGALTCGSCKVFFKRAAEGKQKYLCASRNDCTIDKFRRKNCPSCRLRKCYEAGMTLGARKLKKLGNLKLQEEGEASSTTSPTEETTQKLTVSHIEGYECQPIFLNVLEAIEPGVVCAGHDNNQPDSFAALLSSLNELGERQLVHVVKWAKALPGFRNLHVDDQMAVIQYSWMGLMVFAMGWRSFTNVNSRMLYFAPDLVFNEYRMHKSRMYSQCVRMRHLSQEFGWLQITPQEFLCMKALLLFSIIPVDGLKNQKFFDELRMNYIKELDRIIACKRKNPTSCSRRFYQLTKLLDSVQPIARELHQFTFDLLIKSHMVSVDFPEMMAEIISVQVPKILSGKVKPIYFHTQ

In the case of “TAP-LSD1 (LSD1 with N-terminal TAP tag), tandem affinity purified”, the “demethylation of dimethyl H3-K9 on HeLa nucleosomes in vitro (Western blot)” value is reported as “The TAP-LSD1/AR complex demethylated dimethyl H3-K9 in vitro, whereas TAP-LSD1 or the TAP control failed to do so”.

From US20090104196
